These results are taken from US20220112292A1.

The assay concerns the target CLEC12A/CLL1 (Homo sapiens) (UniProt Q5QGZ9). In words: ELISA on plate coated with 1 ug/mL human CLEC12A; sdAb detected with mouse anti-myc mAb and goat anti-mouse IgG-HRP; Abs 450nm.

B1: VHH clone 2F3 (VHH)
VHH: QVQLQAFGGGLVQPGGSLRLSCVVSGTMFSGKDVNWLRQAPGKHVEVVATVSSDGGTDYADFVKGRFTISRDDAKNTVNLQMNSLEPEDTANYMCHFLWGRHYWGQGTQVTVSS
In turn, B1 displayed an EC50 of 1.5 nM.

B2: VHH clone 1H1 (VHH)
VHH: QVQLQESGGGLVQPGGSLRLSCAASGFTFNSYAMTWVRQAPGKGLEWVSDINSGGGSTNYADSVKGRFTISRDNAKNTLYLQMNSLKPEDTAVYYCATELRGSDYYRGPIREYAYWGQGTLVTVSS
With B2, the EC50 is 0.9 nM.

B3: VHH clone 2H3 (VHH)
VHH: QVQLQESGGGLVQAGGSLRLSCVASGSIRSINVMGWYRQAPGKQRELVAACASDGNTYYADSVKGRFTISRDNAEKTVYLQMNNLKPDDTAVYYCDANSRGNYYSGQGTQVTVSS
Regarding B3, the EC50 was 0.61 nM.

B4: VHH clone 1G6 (VHH)
VHH: QVQLQQSGGGLVQAGGSLRLSCAASGSIFAINEINLMGWYRQAPGKQRELVAACASDGNTYYADSVKGRFTISRDNAEKTVYLQMNNLKPDDTAVYYCDANSRGNYYSGQGTQVTVSS
In the case of B4, the EC50 worked out at 0.48 nM.

B5: VHH clone 2F5 (VHH)
VHH: QVQLQQSGGGLAQTGGSLILSCAASGSIFAINEINLMGWYRQAPGKQRELVAACASDGNTYYADSVKGRFTISRDNAEKTVYLQMNNLKPDDTAVYYCDANSRGNYYSGQGTQVTVSS
On to B5, for which the EC50 stood at 0.65 nM.

B6: VHH clone 1B5 (VHH)
VHH: QVQLQESGGGLVQAGGSLRLSCVVSGATSNVNAMGWYRQAPGKERELVAAISSGGSTSYRDSVKGRFTISRDNAKNTLYLQMNSLKPEDTAMYYCAAQDWATEGYEYDYWGQGTLVTVSS
As for B6, the EC50 worked out at 19.5 nM.
